Source: patent publication US20240182596A1 (TUBULIS, published 2024)
Residue numbers refer to the chain shown, from its start. One block for each binder: values may come before it.

Columns and labels:
[1] = target: T1, purified recombinant human Napi2b antigen consisting of Napi2b-extracellular-loop2 expressed as … (human, UniProt O95436 234-362, limits assumed); test: ELISA, coated Napi2b-extracellular-loop2-Fc-6-His, apparent KD from one-site fit
T1 construct: Expressed in Expi-HEK293 cells; also called immobilized human NaPi2B; not shown: Fc part; 6-His tag
T1 sequence: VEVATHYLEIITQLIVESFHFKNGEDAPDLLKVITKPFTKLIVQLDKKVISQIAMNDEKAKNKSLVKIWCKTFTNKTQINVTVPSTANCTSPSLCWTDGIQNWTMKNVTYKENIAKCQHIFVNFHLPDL

[2] = target: T2, human NaPi2b on NaPi2b-positive cell lines OVCAR-3 and HCC-78 (human, UniProt O95436 1-690); test: flow cytometry on OVCAR-3 cells; table column Binding KD (nmol/L), FACS (OVCAR-3)
T2 construct: Endogenous protein
T2 sequence: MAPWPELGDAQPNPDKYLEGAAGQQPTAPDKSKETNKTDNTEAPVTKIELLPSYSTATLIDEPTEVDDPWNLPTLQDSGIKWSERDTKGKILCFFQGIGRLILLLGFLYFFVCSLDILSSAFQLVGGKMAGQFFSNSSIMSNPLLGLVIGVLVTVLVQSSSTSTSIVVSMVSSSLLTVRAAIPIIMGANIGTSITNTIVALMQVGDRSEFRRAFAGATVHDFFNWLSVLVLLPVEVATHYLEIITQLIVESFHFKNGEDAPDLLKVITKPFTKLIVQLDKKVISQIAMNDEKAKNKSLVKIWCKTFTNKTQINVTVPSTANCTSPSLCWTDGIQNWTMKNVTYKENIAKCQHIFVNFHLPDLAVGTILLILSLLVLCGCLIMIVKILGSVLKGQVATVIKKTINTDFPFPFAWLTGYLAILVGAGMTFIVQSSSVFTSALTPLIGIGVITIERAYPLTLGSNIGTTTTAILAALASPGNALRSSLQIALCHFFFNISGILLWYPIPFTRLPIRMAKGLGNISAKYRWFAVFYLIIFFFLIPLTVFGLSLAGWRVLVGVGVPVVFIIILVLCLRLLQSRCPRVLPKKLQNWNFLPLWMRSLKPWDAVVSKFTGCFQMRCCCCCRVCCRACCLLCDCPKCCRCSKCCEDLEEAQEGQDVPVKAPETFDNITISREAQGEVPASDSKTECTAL

[3] = target: T1, purified recombinant human Napi2b …; test: ELISA on the isolated immobilized protein; table column Binding KD (nmol/L), ELISA
[4] = target: T3, human Napi2b-mCherry on HEK293 cells (human, UniProt O95436 1-690); test: flow cytometry on HEK293 cells stably expressing human full-length NaPi2b-mCherry, Alexa-dye anti-human IgG H+L secondary antibody, MFI ratio, one-site specific binding fit; the Kd table prints no unit, the concentration axis is in nM
T3 construct: also called Napi2b (SLC34A2); HEK293 cells overexpressing Napi2b
T3 sequence: T2 sequence
From the text: (§1) HEK293 cells stably overexpressing human and rat Napi2b were generated by stable integration of a human or rat full-length Napi2b-mCherry-(GGGS)3x-mCherry expression construct under control of a human EF1 promoter and a Puromycin-selection cassette under a CMV promoter into the parental HEK293 cell line. In brief, cells were transfected with the linearized plasmids using Lipfectamine 2000 (Thermo Fisher) and selected with Puromycin antibiotic. Cells were then single cell cloned in 96-well plates via serial dilution under continuous antibiotic selection. Clones were screened for target expression via flow cytometry and mCherry fluorescence via flow cytometry and fluorescence microscopy. Target- and mCherry-positive clones were expanded and used for further experiments. […] Binding of antibodies was investigated on mCherry-positive cells. Mean fluorescence intensity (MFI) ratios were normalized to the secondary antibody control. The assay was performed in duplicates and data points were analyzed by a non-linear regression using a one-site specific binding model to derive KD values using Prism 9 software.

[5] = target: T4, HEK293 cyno-NaPi2B-mCherry (Macaca fascicularis, UniProt A0A2K5UHY1); test: flow cytometry on HEK293 cells stably expressing cynomolgus full-length NaPi2b-mCherry, Alexa-dye anti-human IgG H+L secondary antibody, MFI ratio, one-site specific binding fit; the Kd table prints no unit, the concentration axis is in nM
T4 construct: full-length mCherry fusion stably expressed on HEK293 cells; also called cynomolgus full-length NaPi2b-mCherry on HEK293 cells
T4 sequence (target on cells): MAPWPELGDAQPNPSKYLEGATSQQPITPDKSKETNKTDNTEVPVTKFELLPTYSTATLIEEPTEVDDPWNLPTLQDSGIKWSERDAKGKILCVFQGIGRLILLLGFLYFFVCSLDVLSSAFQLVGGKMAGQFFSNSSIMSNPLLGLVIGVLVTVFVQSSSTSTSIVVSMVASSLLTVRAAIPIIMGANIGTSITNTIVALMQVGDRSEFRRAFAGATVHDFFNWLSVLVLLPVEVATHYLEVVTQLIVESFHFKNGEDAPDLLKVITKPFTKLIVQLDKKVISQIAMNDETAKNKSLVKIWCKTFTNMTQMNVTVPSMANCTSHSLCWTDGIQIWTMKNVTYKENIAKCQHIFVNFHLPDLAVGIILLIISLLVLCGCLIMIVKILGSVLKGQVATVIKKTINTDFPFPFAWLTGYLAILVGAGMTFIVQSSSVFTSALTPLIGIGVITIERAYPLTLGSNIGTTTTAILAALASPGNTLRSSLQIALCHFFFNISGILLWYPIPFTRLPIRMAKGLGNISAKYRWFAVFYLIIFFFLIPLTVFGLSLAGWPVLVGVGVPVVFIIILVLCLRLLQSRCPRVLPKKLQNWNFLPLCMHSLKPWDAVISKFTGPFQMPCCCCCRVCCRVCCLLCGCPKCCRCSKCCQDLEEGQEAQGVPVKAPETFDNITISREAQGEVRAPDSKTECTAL
From the text: as §1

[6] = target: T2, human NaPi2b on NaPi2b-positive cell …; test: flow cytometry on HCC-78 cells, one-site fit
Method: (§2) To determine concentration-dependent binding, NaPi2b-positive OVCAR-3 and HCC-78 were incubated with antibodies in concentrations ranging from 0.00075 to 30 μg/ml, stained with an Alexa-dye-labeled anti-human IgG H+L secondary antibody (Thermo Fisher Scientific), and analyzed by flow cytometry. Mean fluorescence intensity (MFI) ratios were normalized to the non-specific binding control. The assay was performed in duplicates and data points were analyzed by a non-linear regression using a one-site specific binding model using Prism 9 software.

[7] = target: T2, human NaPi2b on NaPi2b-positive cell …; test: flow cytometry on OVCAR-3 cells, one-site fit
Method: as §2

[8] = target: T2, human NaPi2b on NaPi2b-positive cell …; test: flow cytometry on NaPi2b-positive HCC-78 cells, Alexa-dye-labeled anti-human IgG H+L secondary antibody, MFI ratio normalized to the non-specific binding control
Method: as §2

[9] = target: T2, human NaPi2b on NaPi2b-positive cell …; test: flow cytometry on NaPi2b-positive OVCAR-3 cells, Alexa-dye-labeled anti-human IgG H+L secondary antibody, MFI ratio normalized to the non-specific binding control
Method: as §2

Kd [1]: 0.0158 µg/mL
Kd [2]: 6.6 nM
Kd [3]: 0.105 nM
Kd [4]: 3.5 nM
Kd [5]: 2.7 nM
B1: AV-15 antibody (antibody, human IgG1, kappa, L234A L235A, V domains shown)
VH: EVQLVQSGAEVVKPGASVKMSCKASGYTFTGYNIHWVKQAPGQGLEWIGAIYPGNGDTSYKQKFRGRATLTADTSTSTVYMELSSLRSEDSAVYYCARGETARATFAYWGQGTLVTVSS
VL: DIQMTQSPSSLSASVGDRVTITCSASQDIGKFLNWYQQKPGKTVKVLIYYSSSLYSGVPSRFSGSGSGTDYTLTISSLQPEDFATYYCQQYSKVPLTFGQGTKLELKR

Kd [6]: 1.27 µg/mL
Kd [7]: 1.11 µg/mL
EC50 (read off the curve) [8]: ~1 µg/mL
EC50 (read off the curve) [9]: ~1 µg/mL
B2: Upifitamab (antibody, human IgG1, kappa, L234A L235A, V domains shown)
VH: B1 VH
VL: B1 VL with K31N, S51T, V94L
notes: Bought from MedChemExpress

Kd [1]: 0.0125 µg/mL
Kd [2]: 3.5 nM
Kd [3]: 0.083 nM
Kd [4]: 2.08 nM
Kd [5]: 1.5 nM
B3: AV-21 antibody (antibody, human IgG1, kappa, L234A L235A, V domains shown)
VH: B1 VH with Y32Q, N33I, Y52S, G56S, D57G
VL: B1 VL with K31N, S51T, V94L

Kd [1]: 0.0149 µg/mL
Kd [2]: 3.8 nM
Kd [3]: 0.099 nM
Kd [4]: 2.31 nM
Kd [5]: 1.61 nM
B4: AV-18 antibody (antibody, human IgG1, kappa, L234A L235A, V domains shown)
VH: B1 VH with N33I, N55S, D57A
VL: B1 VL with K31N, S51T, V94L

Kd [1]: 0.0124 µg/mL
Kd [2]: 3.5 nM
Kd [3]: 0.082 nM
Kd [4]: 2.66 nM
Kd [5]: 1.91 nM
B5: AV-29 antibody (antibody, human IgG1, kappa, L234A L235A, V domains shown)
VH: B1 VH with H35L, D57G, L70I, T101I
VL: B1 VL with K31N, S51A, V94L
